Experimental data: US20260001928A1 (CORTERIA PHARMACEUTICALS, priority 2022, published 2026)
*1 amine or outer side, *2 acyl side, *3 side chain or, on linkers, in order; H or OH if unused. Where no end group is shown, it is not given here. Side-chain parts run from the residue outwards. [ ]: non-standard residue; d: D form. The star is where a group is joined. C18 diacid = O=C(O)CCCCCCCCCCCCCCCCC(=O)*; C16 diacid = O=C(O)CCCCCCCCCCCCCCC(=O)*; γGlu = O=C(O)[C@H](CCC(=O)[*:2])N[*:1]; NMeI = CC[C@H](C)[C@H](NC)C(=O)O; Api = NC1(C(=O)O)CCNCC1; Abu = CC[C@H](N)C(=O)O

How the values were obtained:
[1] = biological target: T1, CRF1R receptor (UniProt P34998 24-415, limits assumed); experiment: cell-based or functional assay
T1 sequence (looked up): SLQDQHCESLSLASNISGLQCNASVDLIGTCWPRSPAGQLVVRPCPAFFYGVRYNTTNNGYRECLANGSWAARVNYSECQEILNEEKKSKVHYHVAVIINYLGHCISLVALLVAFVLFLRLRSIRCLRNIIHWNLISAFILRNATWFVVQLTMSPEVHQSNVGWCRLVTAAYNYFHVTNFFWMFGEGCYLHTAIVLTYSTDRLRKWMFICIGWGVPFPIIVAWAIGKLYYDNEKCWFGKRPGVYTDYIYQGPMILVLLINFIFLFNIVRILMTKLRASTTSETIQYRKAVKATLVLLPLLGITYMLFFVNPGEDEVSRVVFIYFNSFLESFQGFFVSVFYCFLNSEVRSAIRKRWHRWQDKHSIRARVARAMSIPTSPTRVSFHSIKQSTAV

[2] = biological target: human corticotropin-releasing factor 2a (CRF2a receptor) (human), Q13324; experiment: cell-based or functional assay
Chain of human corticotropin-releasing factor 2a (CRF2a receptor) (human), Q13324 (Q13324 20-411): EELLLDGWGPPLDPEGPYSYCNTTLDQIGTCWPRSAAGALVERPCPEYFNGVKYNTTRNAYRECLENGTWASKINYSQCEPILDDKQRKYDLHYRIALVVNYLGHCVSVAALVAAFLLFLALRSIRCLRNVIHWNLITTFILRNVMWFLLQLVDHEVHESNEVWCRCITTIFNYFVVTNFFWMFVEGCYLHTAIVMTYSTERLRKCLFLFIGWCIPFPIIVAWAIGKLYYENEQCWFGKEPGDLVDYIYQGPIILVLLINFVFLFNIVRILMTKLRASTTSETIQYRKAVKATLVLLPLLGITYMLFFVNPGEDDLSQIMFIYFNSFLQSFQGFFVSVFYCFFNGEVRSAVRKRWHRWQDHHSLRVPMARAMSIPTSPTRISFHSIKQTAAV

Row | Binder | Emax (% I) [1] | EC50 [nM] (cAMP) [2] | EC50 [1]
1 | [NMeI]VLSLD[dV]PIKLK([γGlu-C16 diacid])KILLEQEKQKKQREQAETN[Api]QILAQV-NH2 (N-terminus assumed; SMILES CC[C@H](C)[C@H](NC)C(=O)N[C@H](C(=O)N[C@@H](CC(C)C)C(=O)N[C@@H](CO)C(=O)N[C@@H](CC(C)C)C(=O)N[C@@H](CC(=O)O)C(=O)N[C@@H](C(=O)N1CCC[C@H]1C(=O)N[C@H](C(=O)N[C@@H](CCCCN)C(=O)N[C@@H](CC(C)C)C(=O)N[C@@H](CCCCNC(=O)CC[C@H](NC(=O)CCCCCCCCCCCCCCC(=O)O)C(=O)O)C(=O)N[C@@H](CCCCN)C(=O)N[C@H](C(=O)N[C@@H](CC(C)C)C(=O)N[C@@H](CC(C)C)C(=O)N[C@@H](CCC(=O)O)C(=O)N[C@@H](CCC(N)=O)C(=O)N[C@@H](CCC(=O)O)C(=O)N[C@@H](CCCCN)C(=O)N[C@@H](CCC(N)=O)C(=O)N[C@@H](CCCCN)C(=O)N[C@@H](CCCCN)C(=O)N[C@@H](CCC(N)=O)C(=O)N[C@@H](CCCNC(=N)N)C(=O)N[C@@H](CCC(=O)O)C(=O)N[C@@H](CCC(N)=O)C(=O)N[C@@H](C)C(=O)N[C@@H](CCC(=O)O)C(=O)N[C@H](C(=O)N[C@@H](CC(N)=O)C(=O)NC1(C(=O)N[C@@H](CCC(N)=O)C(=O)N[C@H](C(=O)N[C@@H](CC(C)C)C(=O)N[C@@H](C)C(=O)N[C@@H](CCC(N)=O)C(=O)N[C@H](C(N)=O)C(C)C)[C@@H](C)CC)CCNCC1)[C@@H](C)O)[C@@H](C)CC)[C@@H](C)CC)C(C)C)C(C)C) [SEQ ID NO 72] | 18% | 0.14 nM | 
2 | Ac-IVLSLD[dV]PIKLK([γGlu-C18 diacid])KILLEQEKQKKQREQAETN[Abu]QILAQV-NH2 (SMILES CC[C@H](NC(=O)[C@H](CC(N)=O)NC(=O)[C@@H](NC(=O)[C@H](CCC(=O)O)NC(=O)[C@H](C)NC(=O)[C@H](CCC(N)=O)NC(=O)[C@H](CCC(=O)O)NC(=O)[C@H](CCCNC(=N)N)NC(=O)[C@H](CCC(N)=O)NC(=O)[C@H](CCCCN)NC(=O)[C@H](CCCCN)NC(=O)[C@H](CCC(N)=O)NC(=O)[C@H](CCCCN)NC(=O)[C@H](CCC(=O)O)NC(=O)[C@H](CCC(N)=O)NC(=O)[C@H](CCC(=O)O)NC(=O)[C@H](CC(C)C)NC(=O)[C@H](CC(C)C)NC(=O)[C@@H](NC(=O)[C@H](CCCCN)NC(=O)[C@H](CCCCNC(=O)CC[C@H](NC(=O)CCCCCCCCCCCCCCCCC(=O)O)C(=O)O)NC(=O)[C@H](CC(C)C)NC(=O)[C@H](CCCCN)NC(=O)[C@@H](NC(=O)[C@@H]1CCCN1C(=O)[C@H](NC(=O)[C@H](CC(=O)O)NC(=O)[C@H](CC(C)C)NC(=O)[C@H](CO)NC(=O)[C@H](CC(C)C)NC(=O)[C@@H](NC(=O)[C@@H](NC(C)=O)[C@@H](C)CC)C(C)C)C(C)C)[C@@H](C)CC)[C@@H](C)CC)[C@@H](C)O)C(=O)N[C@@H](CCC(N)=O)C(=O)N[C@H](C(=O)N[C@@H](CC(C)C)C(=O)N[C@@H](C)C(=O)N[C@@H](CCC(N)=O)C(=O)N[C@H](C(N)=O)C(C)C)[C@@H](C)CC) [SEQ ID NO 127] | 11% | 0.08 nM | 
3 | Ac-IVLSLD[dV]PIKLK([γGlu-C18 diacid])KILLEQEKQKKQREQAETN[Api]QILAQV-NH2 (SMILES CC[C@H](C)[C@H](NC(C)=O)C(=O)N[C@H](C(=O)N[C@@H](CC(C)C)C(=O)N[C@@H](CO)C(=O)N[C@@H](CC(C)C)C(=O)N[C@@H](CC(=O)O)C(=O)N[C@@H](C(=O)N1CCC[C@H]1C(=O)N[C@H](C(=O)N[C@@H](CCCCN)C(=O)N[C@@H](CC(C)C)C(=O)N[C@@H](CCCCNC(=O)CC[C@H](NC(=O)CCCCCCCCCCCCCCCCC(=O)O)C(=O)O)C(=O)N[C@@H](CCCCN)C(=O)N[C@H](C(=O)N[C@@H](CC(C)C)C(=O)N[C@@H](CC(C)C)C(=O)N[C@@H](CCC(=O)O)C(=O)N[C@@H](CCC(N)=O)C(=O)N[C@@H](CCC(=O)O)C(=O)N[C@@H](CCCCN)C(=O)N[C@@H](CCC(N)=O)C(=O)N[C@@H](CCCCN)C(=O)N[C@@H](CCCCN)C(=O)N[C@@H](CCC(N)=O)C(=O)N[C@@H](CCCNC(=N)N)C(=O)N[C@@H](CCC(=O)O)C(=O)N[C@@H](CCC(N)=O)C(=O)N[C@@H](C)C(=O)N[C@@H](CCC(=O)O)C(=O)N[C@H](C(=O)N[C@@H](CC(N)=O)C(=O)NC1(C(=O)N[C@@H](CCC(N)=O)C(=O)N[C@H](C(=O)N[C@@H](CC(C)C)C(=O)N[C@@H](C)C(=O)N[C@@H](CCC(N)=O)C(=O)N[C@H](C(N)=O)C(C)C)[C@@H](C)CC)CCNCC1)[C@@H](C)O)[C@@H](C)CC)[C@@H](C)CC)C(C)C)C(C)C) [SEQ ID NO 129] | 39% | 0.14 nM | 236 nM
4 | Ac-IVLSLD[dV]PIKLK([γGlu-C18 diacid])KILLEQEKQKKQREQAETNAQILAQV-NH2 (SMILES CC[C@H](C)[C@H](NC(C)=O)C(=O)N[C@H](C(=O)N[C@@H](CC(C)C)C(=O)N[C@@H](CO)C(=O)N[C@@H](CC(C)C)C(=O)N[C@@H](CC(=O)O)C(=O)N[C@@H](C(=O)N1CCC[C@H]1C(=O)N[C@H](C(=O)N[C@@H](CCCCN)C(=O)N[C@@H](CC(C)C)C(=O)N[C@@H](CCCCNC(=O)CC[C@H](NC(=O)CCCCCCCCCCCCCCCCC(=O)O)C(=O)O)C(=O)N[C@@H](CCCCN)C(=O)N[C@H](C(=O)N[C@@H](CC(C)C)C(=O)N[C@@H](CC(C)C)C(=O)N[C@@H](CCC(=O)O)C(=O)N[C@@H](CCC(N)=O)C(=O)N[C@@H](CCC(=O)O)C(=O)N[C@@H](CCCCN)C(=O)N[C@@H](CCC(N)=O)C(=O)N[C@@H](CCCCN)C(=O)N[C@@H](CCCCN)C(=O)N[C@@H](CCC(N)=O)C(=O)N[C@@H](CCCNC(=N)N)C(=O)N[C@@H](CCC(=O)O)C(=O)N[C@@H](CCC(N)=O)C(=O)N[C@@H](C)C(=O)N[C@@H](CCC(=O)O)C(=O)N[C@H](C(=O)N[C@@H](CC(N)=O)C(=O)N[C@@H](C)C(=O)N[C@@H](CCC(N)=O)C(=O)N[C@H](C(=O)N[C@@H](CC(C)C)C(=O)N[C@@H](C)C(=O)N[C@@H](CCC(N)=O)C(=O)N[C@H](C(N)=O)C(C)C)[C@@H](C)CC)[C@@H](C)O)[C@@H](C)CC)[C@@H](C)CC)C(C)C)C(C)C) [SEQ ID NO 126] | 20% | 0.05 nM | 
